# B1: Hu6 (antibody, human IgG1, kappa, V domains shown)
# VH: EVQLVQSGSELKKPGASVKVSCKASGYTFTDYYMNWVRQAPGQGLEWMGIINPYSGVTIYNHKFKGRFALSVDKSSNTAYLQISSLKAEDTAVYYCARQDSLLDYAMDYWGQGTTVTVSS
# VL: DIQMTQSPSSLSASVGDRVTITCHASQGISGNMGWLQQKPGKAPKGLIYHGANLEDGVPSRFSGSGSGADYTLTISSLQPEDFADYYCVQYAQFPYTFGGGTKVEIKR
# notes: also called hAb6L4H12
# B2: Hu100 (antibody, human IgG1, kappa, V domains shown)
# VH: EVQLVESGGGLVKPGGSLRLSCAASGFTFSDSGMHWIRQAPGKGLEWVSYISSGSSTIHYADTVKGRFTISRDNAKNSLYLQMNSLRAEDTAVYYCASPLYYYGRSYNAVAYWGQGTTVTVSS
# VL: DIQMTQSPSSLSASVGDRVTITCHASQNINVWLSWYQQKPGKVPKLLIYKASDLHTGVPSRFSGSGSGTDFTLTISSLQPEDVATYYCQQGQSYPLTFGGGTKVEIKR
# notes: also called hAb100L1H1
# Experiments:
# [1] = biological target: T1, Human DLL1 full-length protein on CHO-s cells (human, UniProt O00548 18-723); experiment: FACS on human DLL1/CHO-s cells
# T1 construct: also called human DLL1/CHO-s
# T1 sequence: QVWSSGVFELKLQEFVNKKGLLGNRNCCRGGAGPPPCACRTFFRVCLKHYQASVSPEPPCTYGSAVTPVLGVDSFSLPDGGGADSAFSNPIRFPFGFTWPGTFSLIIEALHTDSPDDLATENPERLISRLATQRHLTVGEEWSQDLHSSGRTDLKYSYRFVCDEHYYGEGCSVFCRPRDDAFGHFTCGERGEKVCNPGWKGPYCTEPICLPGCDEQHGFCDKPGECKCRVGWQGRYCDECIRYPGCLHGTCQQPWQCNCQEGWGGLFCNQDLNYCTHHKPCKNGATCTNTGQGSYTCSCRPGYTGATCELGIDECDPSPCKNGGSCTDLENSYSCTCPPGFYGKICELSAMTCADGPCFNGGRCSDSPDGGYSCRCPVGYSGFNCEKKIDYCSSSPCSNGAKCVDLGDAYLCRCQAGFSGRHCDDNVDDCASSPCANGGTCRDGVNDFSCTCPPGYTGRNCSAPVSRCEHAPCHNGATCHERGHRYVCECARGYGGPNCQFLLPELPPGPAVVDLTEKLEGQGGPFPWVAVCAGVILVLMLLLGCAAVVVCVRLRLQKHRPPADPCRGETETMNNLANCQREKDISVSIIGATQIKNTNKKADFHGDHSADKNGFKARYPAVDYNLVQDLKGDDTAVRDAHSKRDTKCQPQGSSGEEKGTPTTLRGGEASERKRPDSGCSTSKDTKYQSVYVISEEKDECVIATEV
# Experimental: Stably transfected human DLL1/CHO-s and human DLL4/CHO-s cells were suspended at 1×10⁶/mL in FACS buffer (containing 1% BSA and pH 7.4 PBS), and the cell suspensions were added to a 96-well round-bottom plate (Corning, 3795) at 100 µL/well. The plate was centrifuged at 300 g for 5 min, and the supernatant was removed. Test antibodies were added at 100 μL/well, and the plate was incubated in the dark in a refrigerator at 4° C. for 1 h. After 3 washes by centrifugation at 300 g, working concentrations of PE F(ab′)2-goat anti-human IgG Fc secondary antibody (invitrogen, H10104) were added. The plate was incubated in the dark in a refrigerator at 4° C. for 40 min. After 3 washes by centrifugation at 300 g, the geometric mean fluorescence intensity was measured on an Invitrogen flow cytometer.
# [2] = biological target: T2, human DLL3 (ACRO, DLL3-H52H4) (human, UniProt Q9NYJ7 27-479); experiment: SPR (Biacore 8K), antibody captured on Protein A chip, 1:1 fit
# T2 construct: bought antigen of the Biacore assay; construct not described
# T2 sequence (looked up): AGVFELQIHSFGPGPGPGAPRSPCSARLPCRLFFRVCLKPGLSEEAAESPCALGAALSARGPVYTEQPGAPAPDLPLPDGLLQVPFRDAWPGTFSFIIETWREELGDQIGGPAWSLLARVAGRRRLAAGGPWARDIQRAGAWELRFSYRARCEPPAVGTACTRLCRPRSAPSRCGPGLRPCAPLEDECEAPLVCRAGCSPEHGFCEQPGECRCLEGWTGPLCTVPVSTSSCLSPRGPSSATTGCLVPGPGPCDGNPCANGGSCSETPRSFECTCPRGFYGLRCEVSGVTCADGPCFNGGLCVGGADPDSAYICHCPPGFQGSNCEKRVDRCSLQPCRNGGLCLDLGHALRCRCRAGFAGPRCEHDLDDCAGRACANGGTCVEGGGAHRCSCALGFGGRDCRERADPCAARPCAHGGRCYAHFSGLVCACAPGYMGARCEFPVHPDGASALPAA
# From the text: Test antibodies were affinity-captured with a Protein A biosensor chip (Cat. #29127556, Cytiva) for 18 seconds, and then the antigens human DLL3 (ACRO, DLL3-H52H4), cynomolgus monkey DLL3 (KACTUS, DLL-RM103), and mouse DLL3 (KACTUS, DLL-MM103) were allowed to flow over the surface of the chip for 180 seconds, followed by 600 seconds of dissociation. Reaction signals were detected in real time using a Biacore 8K (Cytiva) instrument to obtain association and dissociation curves. After the dissociation in each experimental cycle, the biosensor chip was washed and regenerated with a 10 mM glycine-hydrochloric acid solution (pH 1.5) (Cat. #BR-1003-54, Cytiva). A 1:1 model was fit to the data. The results are shown in Table 12-1, Table 12-2, and Table 12-3.
# [3] = biological target: T3, Rat DLL3 full-length protein on CHO-s cells (rat, UniProt O88671 33-589); experiment: FACS on RatDLL3/CHO-s cells
# T3 construct: also called RatDLL3/CHO-s; ratDLL3/CHO-s
# T3 sequence: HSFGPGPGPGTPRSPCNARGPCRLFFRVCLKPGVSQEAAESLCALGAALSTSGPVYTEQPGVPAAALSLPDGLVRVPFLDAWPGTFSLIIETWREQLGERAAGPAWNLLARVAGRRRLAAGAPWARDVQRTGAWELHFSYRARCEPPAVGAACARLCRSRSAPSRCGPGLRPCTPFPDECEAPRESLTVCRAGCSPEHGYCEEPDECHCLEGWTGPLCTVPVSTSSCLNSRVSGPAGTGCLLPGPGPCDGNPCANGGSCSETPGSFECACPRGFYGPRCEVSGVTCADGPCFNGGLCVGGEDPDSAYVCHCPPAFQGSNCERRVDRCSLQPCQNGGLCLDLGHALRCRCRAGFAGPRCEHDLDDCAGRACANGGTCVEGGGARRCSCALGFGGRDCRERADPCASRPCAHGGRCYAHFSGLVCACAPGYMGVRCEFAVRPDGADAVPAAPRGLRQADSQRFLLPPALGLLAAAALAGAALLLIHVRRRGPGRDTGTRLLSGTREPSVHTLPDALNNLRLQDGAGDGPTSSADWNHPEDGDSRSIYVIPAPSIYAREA
# Experimental: Cells of the DLL3-expressing small cell lung cancer cell lines H1184 (ATCC, Cat. No. CRL-5858), DLL3/H82, cynoDLL3/CHO-s, and RatDLL3/CHO-s were suspended at 1×10^6/mL in FACS buffer (1% BSA+pH 7.4 PBS), and the cell suspensions were added to a 96-well round-bottom plate (Corning, 3795) at 100 μL/well. The plate was centrifuged at 300 g for 5 min, and the supernatant was removed. Different concentrations of test antibodies were added at 100 μL/well. The plate was incubated in the dark in a refrigerator at 4° C. for 1 h. After 3 washes by centrifugation at 300 g, working concentrations of APC anti-human IgG Fc (BioLegend, 410712) or PE F(ab′)2-goat anti-human IgG (invitrogen, H10104) were added. The plate was incubated in the dark in a refrigerator at 4° C. for 40 min. After 3 washes by centrifugation at 300 g, the geometric mean fluorescence intensity was measured on an Invitrogen flow cytometer, and the EC50 values of the antibodies in binding to DLL3-expressing cells were calculated.
binder,measurement,setting,value
B1,binding result,[1],no binding
same,Kd,[2],0.594 nM
same,EC50,[3],1.42 nM
B2,binding result,[1],no binding
same,Kd,[2],0.471 nM
same,binding result,[3],no binding

# Reference: patent US20250057968A1, “ANTI-DLL3 ANTIBODY AND PHARMACEUTICAL USE THEREOF, AND ANTIBODY-DRUG CONJUGATE CONTAINING ANTI-DLL3 ANTIBODY” (Jiangsu Hengrui Pharmaceuticals Co., Ltd., priority 2021, published 2025)
